# Measured values from IntAct's records for PubMed 36931259.
# B1: 14-3-3 protein sigma (Homo sapiens), P31947 (parent)
# chain: MERASLIQKAKLAEQAERYEDMAAFMKGAVEKGEELSCEERNLLSVAYKNVVGGQRAAWRVLSSIEQKSNEEGSEEKGPEVREYREKVETELQGVCDTVLGLLDSHLIKEAGDAESRVFYLKMKGDYYRYLAEVATGDDKKRIIDSARSAYQEAMDISKKEMPPTNPIRLGLALNFSVFHYEIANSPEEAISLAKTTFDEAMADLHTLSEDSYKDSTLIMQLLRDNLTLWTADNAGEEGGEAPQEPQS
# partner: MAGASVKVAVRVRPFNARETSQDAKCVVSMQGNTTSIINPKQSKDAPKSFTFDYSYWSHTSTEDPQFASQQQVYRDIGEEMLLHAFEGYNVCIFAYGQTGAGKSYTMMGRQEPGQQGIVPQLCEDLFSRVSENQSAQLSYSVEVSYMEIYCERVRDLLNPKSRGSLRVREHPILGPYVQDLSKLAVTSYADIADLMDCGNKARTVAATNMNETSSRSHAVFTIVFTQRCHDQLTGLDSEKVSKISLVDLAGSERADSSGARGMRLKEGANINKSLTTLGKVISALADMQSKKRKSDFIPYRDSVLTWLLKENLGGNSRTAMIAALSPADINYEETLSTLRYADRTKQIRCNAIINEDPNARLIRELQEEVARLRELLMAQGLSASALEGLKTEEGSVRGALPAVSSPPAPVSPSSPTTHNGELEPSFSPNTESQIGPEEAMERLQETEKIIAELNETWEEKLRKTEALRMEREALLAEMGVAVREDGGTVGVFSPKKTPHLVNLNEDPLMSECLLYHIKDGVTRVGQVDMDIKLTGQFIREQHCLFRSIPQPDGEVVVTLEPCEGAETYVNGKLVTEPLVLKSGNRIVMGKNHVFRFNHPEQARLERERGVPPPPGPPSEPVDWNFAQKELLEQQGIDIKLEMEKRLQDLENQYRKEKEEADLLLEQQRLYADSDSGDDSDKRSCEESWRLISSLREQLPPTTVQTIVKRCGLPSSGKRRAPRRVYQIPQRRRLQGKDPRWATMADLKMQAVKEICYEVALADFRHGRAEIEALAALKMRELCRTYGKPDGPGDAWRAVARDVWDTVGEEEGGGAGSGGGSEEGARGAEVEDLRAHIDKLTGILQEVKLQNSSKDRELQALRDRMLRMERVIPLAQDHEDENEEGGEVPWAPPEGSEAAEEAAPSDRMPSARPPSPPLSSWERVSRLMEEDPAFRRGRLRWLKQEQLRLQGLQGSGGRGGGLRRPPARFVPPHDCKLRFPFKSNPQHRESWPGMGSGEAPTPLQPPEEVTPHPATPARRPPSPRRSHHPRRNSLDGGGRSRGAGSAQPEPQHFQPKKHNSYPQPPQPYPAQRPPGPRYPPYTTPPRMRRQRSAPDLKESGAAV
# B2: 14-3-3 protein sigma (Homo sapiens), P31947 (parent)
# chain: B1 chain
# partner: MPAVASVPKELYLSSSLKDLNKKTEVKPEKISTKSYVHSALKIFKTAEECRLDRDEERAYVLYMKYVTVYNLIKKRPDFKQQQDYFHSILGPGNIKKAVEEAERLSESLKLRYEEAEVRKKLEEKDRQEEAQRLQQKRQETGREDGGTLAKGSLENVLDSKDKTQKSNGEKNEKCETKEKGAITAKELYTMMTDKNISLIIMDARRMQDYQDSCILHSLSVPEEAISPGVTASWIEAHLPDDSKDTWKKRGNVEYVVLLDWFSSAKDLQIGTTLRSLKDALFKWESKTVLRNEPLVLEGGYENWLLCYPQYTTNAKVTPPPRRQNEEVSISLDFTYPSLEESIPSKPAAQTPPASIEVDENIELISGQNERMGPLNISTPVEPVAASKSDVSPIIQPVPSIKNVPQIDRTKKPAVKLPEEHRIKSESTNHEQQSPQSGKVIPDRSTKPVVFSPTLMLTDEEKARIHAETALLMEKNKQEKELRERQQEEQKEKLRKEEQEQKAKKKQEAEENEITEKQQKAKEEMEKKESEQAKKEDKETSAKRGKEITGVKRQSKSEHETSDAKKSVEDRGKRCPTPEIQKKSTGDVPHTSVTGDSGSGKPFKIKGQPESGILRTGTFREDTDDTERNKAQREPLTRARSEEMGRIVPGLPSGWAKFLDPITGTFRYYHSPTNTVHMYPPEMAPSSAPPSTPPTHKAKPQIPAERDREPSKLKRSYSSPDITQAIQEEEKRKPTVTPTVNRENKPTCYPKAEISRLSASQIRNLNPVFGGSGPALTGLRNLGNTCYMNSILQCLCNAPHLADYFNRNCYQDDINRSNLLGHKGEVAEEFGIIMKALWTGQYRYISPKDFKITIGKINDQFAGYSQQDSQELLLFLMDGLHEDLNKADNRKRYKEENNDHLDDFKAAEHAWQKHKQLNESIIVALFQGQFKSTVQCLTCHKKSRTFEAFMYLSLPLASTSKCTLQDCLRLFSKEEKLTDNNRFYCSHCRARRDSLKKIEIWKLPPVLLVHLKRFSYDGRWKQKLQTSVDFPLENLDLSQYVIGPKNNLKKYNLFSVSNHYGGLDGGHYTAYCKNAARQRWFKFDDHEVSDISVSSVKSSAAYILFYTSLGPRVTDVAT
# B3: 14-3-3 protein sigma (Homo sapiens), P31947 (parent)
# chain: B1 chain
# partner: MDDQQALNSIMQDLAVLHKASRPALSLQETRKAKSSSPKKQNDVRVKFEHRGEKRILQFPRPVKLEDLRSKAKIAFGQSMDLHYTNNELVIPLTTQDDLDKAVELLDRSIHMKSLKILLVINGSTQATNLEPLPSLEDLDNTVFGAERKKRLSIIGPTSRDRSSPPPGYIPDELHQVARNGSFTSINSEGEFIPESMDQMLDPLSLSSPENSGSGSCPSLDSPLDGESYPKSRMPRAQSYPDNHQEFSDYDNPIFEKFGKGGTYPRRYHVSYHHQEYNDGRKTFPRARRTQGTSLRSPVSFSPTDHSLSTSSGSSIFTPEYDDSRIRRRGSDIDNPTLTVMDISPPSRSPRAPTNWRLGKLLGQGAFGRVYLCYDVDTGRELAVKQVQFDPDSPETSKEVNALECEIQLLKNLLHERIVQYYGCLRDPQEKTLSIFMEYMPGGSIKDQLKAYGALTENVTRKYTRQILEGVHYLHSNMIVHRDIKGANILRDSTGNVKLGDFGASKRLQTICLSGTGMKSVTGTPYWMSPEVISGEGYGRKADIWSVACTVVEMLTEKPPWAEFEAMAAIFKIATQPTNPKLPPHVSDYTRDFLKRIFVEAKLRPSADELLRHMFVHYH
# B4: 14-3-3 protein sigma (Homo sapiens), P31947 (parent)
# chain: B1 chain
# partner: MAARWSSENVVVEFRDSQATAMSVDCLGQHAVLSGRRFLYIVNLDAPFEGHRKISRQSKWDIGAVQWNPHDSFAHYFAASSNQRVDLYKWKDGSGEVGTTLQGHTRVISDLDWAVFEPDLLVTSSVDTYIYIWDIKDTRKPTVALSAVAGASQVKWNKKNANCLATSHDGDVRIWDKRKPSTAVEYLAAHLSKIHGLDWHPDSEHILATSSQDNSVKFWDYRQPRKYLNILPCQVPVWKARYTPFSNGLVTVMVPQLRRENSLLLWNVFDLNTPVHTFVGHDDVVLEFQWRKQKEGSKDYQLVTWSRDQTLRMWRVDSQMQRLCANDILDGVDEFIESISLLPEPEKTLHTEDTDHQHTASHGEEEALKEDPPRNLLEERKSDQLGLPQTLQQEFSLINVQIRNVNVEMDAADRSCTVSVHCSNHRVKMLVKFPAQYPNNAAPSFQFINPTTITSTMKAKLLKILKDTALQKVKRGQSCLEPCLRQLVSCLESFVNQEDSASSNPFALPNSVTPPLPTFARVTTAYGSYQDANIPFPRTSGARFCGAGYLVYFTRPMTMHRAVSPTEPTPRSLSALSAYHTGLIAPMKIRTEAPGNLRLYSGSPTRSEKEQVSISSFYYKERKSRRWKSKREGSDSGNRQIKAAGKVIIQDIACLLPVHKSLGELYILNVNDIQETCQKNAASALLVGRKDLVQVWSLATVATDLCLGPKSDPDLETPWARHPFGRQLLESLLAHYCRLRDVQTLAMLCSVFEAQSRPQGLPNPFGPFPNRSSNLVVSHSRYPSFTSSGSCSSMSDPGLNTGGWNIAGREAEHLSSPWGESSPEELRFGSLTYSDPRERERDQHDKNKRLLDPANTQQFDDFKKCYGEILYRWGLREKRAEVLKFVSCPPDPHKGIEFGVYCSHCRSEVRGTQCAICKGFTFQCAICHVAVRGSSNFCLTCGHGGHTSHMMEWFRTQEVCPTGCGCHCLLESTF
# B5: 14-3-3 protein sigma (Homo sapiens), P31947 (parent)
# chain: B1 chain
# partner: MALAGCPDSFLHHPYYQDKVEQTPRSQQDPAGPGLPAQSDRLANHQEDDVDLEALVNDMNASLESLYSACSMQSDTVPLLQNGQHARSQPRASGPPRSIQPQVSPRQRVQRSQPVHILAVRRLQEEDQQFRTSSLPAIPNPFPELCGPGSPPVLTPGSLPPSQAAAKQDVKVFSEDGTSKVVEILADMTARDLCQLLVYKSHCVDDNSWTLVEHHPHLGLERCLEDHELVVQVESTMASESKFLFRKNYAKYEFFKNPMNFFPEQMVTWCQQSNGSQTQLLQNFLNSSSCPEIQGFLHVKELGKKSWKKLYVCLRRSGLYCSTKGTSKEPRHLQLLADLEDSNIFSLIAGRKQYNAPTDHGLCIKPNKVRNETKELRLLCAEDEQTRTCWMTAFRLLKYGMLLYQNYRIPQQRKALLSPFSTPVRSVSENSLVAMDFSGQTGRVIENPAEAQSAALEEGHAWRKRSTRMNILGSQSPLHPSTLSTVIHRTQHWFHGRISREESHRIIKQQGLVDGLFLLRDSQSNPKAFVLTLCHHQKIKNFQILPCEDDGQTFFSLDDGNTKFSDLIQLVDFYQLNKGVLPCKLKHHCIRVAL
# B6: 14-3-3 protein sigma (Homo sapiens), P31947 (parent)
# chain: B1 chain
# partner: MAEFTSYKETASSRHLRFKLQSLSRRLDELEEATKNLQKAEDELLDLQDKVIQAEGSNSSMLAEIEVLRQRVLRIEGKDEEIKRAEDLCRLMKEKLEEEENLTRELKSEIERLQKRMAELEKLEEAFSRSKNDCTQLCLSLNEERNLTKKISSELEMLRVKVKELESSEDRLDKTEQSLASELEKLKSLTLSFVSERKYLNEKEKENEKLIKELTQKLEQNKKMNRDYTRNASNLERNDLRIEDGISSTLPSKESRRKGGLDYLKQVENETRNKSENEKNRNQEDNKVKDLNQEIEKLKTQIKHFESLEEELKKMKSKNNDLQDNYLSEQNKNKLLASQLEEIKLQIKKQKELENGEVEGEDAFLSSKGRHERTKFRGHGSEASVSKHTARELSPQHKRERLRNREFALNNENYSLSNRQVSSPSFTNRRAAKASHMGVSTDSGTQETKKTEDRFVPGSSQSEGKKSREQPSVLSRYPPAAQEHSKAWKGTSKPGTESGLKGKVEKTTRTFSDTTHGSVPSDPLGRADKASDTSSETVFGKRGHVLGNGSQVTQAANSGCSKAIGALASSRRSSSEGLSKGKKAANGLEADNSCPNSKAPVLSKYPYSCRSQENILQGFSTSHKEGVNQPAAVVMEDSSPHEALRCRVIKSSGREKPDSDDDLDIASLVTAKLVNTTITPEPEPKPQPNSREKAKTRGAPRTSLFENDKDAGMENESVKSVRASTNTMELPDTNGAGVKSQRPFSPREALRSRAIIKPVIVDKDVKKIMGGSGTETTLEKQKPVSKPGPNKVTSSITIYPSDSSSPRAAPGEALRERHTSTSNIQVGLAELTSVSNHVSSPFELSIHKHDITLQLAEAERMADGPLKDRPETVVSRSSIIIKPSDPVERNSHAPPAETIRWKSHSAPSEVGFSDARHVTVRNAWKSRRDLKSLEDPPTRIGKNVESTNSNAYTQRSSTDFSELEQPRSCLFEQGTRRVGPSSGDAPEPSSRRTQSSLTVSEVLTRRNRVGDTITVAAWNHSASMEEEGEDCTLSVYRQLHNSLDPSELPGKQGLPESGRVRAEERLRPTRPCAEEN
# Variants of: B1
# Conditions: with kif1c_human KIF1C
row,effect of a mutation on the interaction,Variant
1,decreasing interaction strength,K49E;R56E;V178D

# Variants of: B2
# Conditions: with ubp8_human USP8, P40818
row,effect of a mutation on the interaction,Variant
1,decreasing interaction strength,K49E;R56E;V178D

# Variants of: B3
# Conditions: with m3k2_human MAP3K2, Q9Y2U5
row,effect of a mutation on the interaction,Variant
1,decreasing interaction strength,K49E;R56E;V178D

# Variants of: B4
# Conditions: with wdr59_human WDR59, Q6PJI9
row,effect of a mutation on the interaction,Variant
1,decreasing interaction strength,K49E;R56E;V178D

# Variants of: B5
# Conditions: with grb10_human GRB10, Q13322
row,effect of a mutation on the interaction,Variant
1,decreasing interaction strength,K49E;R56E;V178D

# Variants of: B6
# Conditions: with luzp1_human LUZP1, Q86V48
row,effect of a mutation on the interaction,Variant
1,decreasing interaction strength,K49E;R56E;V178D
